The values below come from the nanobody polyreactivity screen of Harvey et al. (2022).

The nature of the series: yeast display, Sf9 membrane polyspecificity reagent, FACS + sequencing; frameworks hold sequencing errors. The method in brief:
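Genes from sorted yeast were amplified by colony PCR, read by MiSeq 2 × 250 sequencing and filtered on CDR length. These cells carried a synthetic nanobody library in Saccharomyces cerevisiae BJ5465 and were sorted by FACS into low and high (top ~1%) gates on anti-HA and streptavidin fluorescence. Polyreactivity is labelled according to the gate of origin.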
For “QVQLVESRVGLVQAGGSLRLSCAASGIIFTLYAMGWYRQAPGKERELVAGIDASGGSTSYADSVKGRFTISRDNAKNTVYLQMNSLKPEVTAVYYCAARILPYGYDYWGQGTQVTVSS”, the “polyreactivity (PSR sort gate)” value was “low polyreactivity”.
“QVQLVESGGGLVQAGGSLRLSCAASGSTFDVNTMGWYRQAPGTERELVAAIRLRGGSTYYADSVKGRFTISRDNAKNTVYLQMNSLKPEDTAVYYCAADYTLIYDYWGQGTQVTVSS”: the “polyreactivity (PSR sort gate)” value is “low polyreactivity”.
Under “QVQLVESGGGLVQAGGSLRLSCAASGFTFGRNAMGWYRQAPGKERELVARITTGGSTNYADSVKGRFTISRDHAKNTVDLQMNRLKPEDTAVYDCAATYRSLALFWTYGYWGQGTQVTVSS” stands “low polyreactivity”; under “QVQLVESGGGLVKAGGSLRLSCAATGRIFEYNTMGWYRQAPGKERELVAAITGGTGSTYYADSVKGRFTISRDNAKNTVYLKMNSLKPEDTAVYYCAADYTSPAFYSSFDYWGQGTQVTVSS”, “low polyreactivity”; under “QVQLVESGGGLVQAGGSLLLSCAASGITFGDNAMGWYRQAPGKERELVAAISSGGSTDYADSVNGRFTISRDNAKNTVYLQMNSLKPEDTAVYYCAVDWVSVPEYDYWGQGTQVTVSS”, “low polyreactivity”.
With “QVQLEESGGGLVQAGCSLRLTCAASGSTFYSYPMGWSRQAPGKERELVAAITVSGTSTYYADSVKGRFTISRDNAKNTVYLQMYSVKPEDTAVYYCAADRRTDGHDYWGQGTQVTVSS”, the “polyreactivity (PSR sort gate)” value is on record as “high polyreactivity”.
Under “QVQLVESGGGLVQAGGSLRLSCAASGFTIASNAMGWYRQAPGKERELVAAIRRSGSRTYYADSVKGRFTISRDNAKNTVYLQMNSLKPEDTAVYYCAVVSPRQSYYYWGQGTQVTVSS” stands “high polyreactivity”; under “QVQLVESGGGLVQAGCSLRLTCAASGRTFITNAKGWYRQAPVKERELVAAISSGTGGRTNYADSVKGRFTISRDNAKNTVYLQMNSRKPEDTAVYYCAARSTKYYPYGYWGQGTQVTLSS”, “high polyreactivity”.
Under “QVQLVESGGGLVQARGSLRLRFAASGSTFPYYAMGWDRQAPGKERELVATITKRGGRKYYADSVKGRFTISRDNAKNTVYFLMTSLKPEDTAVYYCAARFRFAVTYDYWGQGTQVTVSS” stands “high polyreactivity”; under “QVQLVESGGGLVQAGGSLRLSCAASGSIFYPYAMGWYRQAPGKERELVAAIRNGGSTYYADSVKGRFTISRDNAKNTVYLQMNSLKPEDTAVYYCAASVRRRHPFEYWGQGTQVTVSS”, “high polyreactivity”.
Consider “QVQLVDSGGGLVQAGGSLRLSCAASGSTYGLYAMGWYRQATGKERELVAAITWRASSTYYADSVKGRFTISRDNAKNTVFLQMNSLKPEDTAVYYCAATWYSRFSRGDYDYWGQGTQVTVSS”, for which the “polyreactivity (PSR sort gate)” value was “high polyreactivity”.
As for “QVQHVESWGGIVQARGSLRLSCAASGSTFSYNALGWYRQPPGKERELVAALTCSGASTYYAYSVKGRFTISRDKAKNTVYLQLSSMNPDDTAVYYCNAPDGPGPNAYYEFDYWGQGTQVTVSS”, the “polyreactivity (PSR sort gate)” value is given as “low polyreactivity”.
With “QVQLVESGGGLVQAGGSLRLSCAASGRTFYRYSMGWYRQAPAKERELVAAISSSGGRTYYADSVKGRFTISRDNAKNTVYLQMNSLKPEDTAVYYCIKAYYYWYDWGQGTQVTVSS” the entry was “high polyreactivity”; with “QVQLVESGGGLVQAGGSLRLSCAASGFTFRKYAMGWYRQAPGKESELVAAISWSGGSTYYADSVKGRFTISRDNAKNTVYLQMNSMKPEDTAVYYCAAPHWSPYDYWGQGTQVTVSS”, “high polyreactivity”; with “QVQLVESGGGLGQAGGSLRLSCAASGSIFEGNGMGWYRPAPGKERELVAAITFRSGSTYYADSVKGRFTISRDNAKNTVYLQMNSLKPEDTAVYYCAADEYYQVSAYDYWGQGTQVTVSS”, “low polyreactivity”.
With “QVQLVESGGGLVQAGGSLRLSCAASGLIIPKYAMGWYRQAPGKEREFVAAISGRGGTTYYADSVKGRFTISRDNAKNTVYLQMYSLKPEDTAVYYCAAGGPWANIYGNGYWGQGTQVTVSS” the entry was “high polyreactivity”.
Under “QVQLVESGGGLVQAGGSLRLSCAASGRILQWYTMGWYRQAPGKERELVAAISGGGGRTYYADSVKGRFTNSRDIAKNTVYLQMNSLKPEDTAVYYCAKRGTGVYRVDYGYWGQGTQVTVSS” stands “high polyreactivity”; under “QVQLVESGGGLVLARGTLRLSCPASGFTFSRYAMGWYRQAPGKERELVAAISRTGGRTYYADSVKGRFTISRDNAKNTVYLQMNSLKPVDTAVYYCARLPVHSHLRQTYAMEYWGQGTQVTVSS”, “high polyreactivity”.
On to “QVQLVESGGGLVQAGGSLRLSCAASGFIFRVNALGGSRPAPGKERVLVAARISSSGSTYYADSVKGRFTISRDNAKNTVYLQMNSLKPEDTAVYYCAADPYYLQQFDYWGQGTQVTVSS”, for which the “polyreactivity (PSR sort gate)” value was “low polyreactivity”.
Under “QVQLVESGGGLVQAGGSLRLSCAASGRILSRYVMGWYRQAPGKERELVAAISGRATSTYYADSVKGRFTISRDNAKNTVYLQMNSLKPEDTAVYYCATGYKTYAVTLYDYWGQGTQVTVSS” stands “high polyreactivity”.
With “QVQLVESGGGLVQAGGSLRLSCAASGFIFGLYAMGWYRQAPGKEREFVAAISWSGGSTYYADSVKGRFTISRDNAKNTVYLQMNSLKPEDTAVYYCAREYHGDSRRYDYWGQGTQVTVSS” the entry was “high polyreactivity”; with “QVQLVESGGGLVQAGGSLRLSCAASGRIFRTYAMGWYRQAPGKERELVAAINSGGTTYYADSVKGRFTISRDNAKNTVYLQMNSLKPEDTAVYYCNAEYYYAFLRLWYDYWGQGTQVTVSS”, “high polyreactivity”.
With “QVQLVESGGGLVQAGGSLRLSCAASGRIFLYYTMGWYRQAPGKERELVADITWRGGYTYYADSVKGRFTISRDNAKNTVYLQMNSLKPQDTAVYYFNAVSVSYKRSDYWGQGTQVTVSS” the entry was “low polyreactivity”.
On to “QVQLVESGGGLVQAGGSLRLSCAASGITLDYYAMGWYRQAPGKERELVASITSGGSTNYADSVKGRFTISRDNAKNTVYLQMNSLKPVDTAVYYCARDVNYPGSEGDYWGQGTQVTVSS”, for which the “polyreactivity (PSR sort gate)” value is “low polyreactivity”.
Under “QVQLVESGGGLVQAGGSLRLSCAASGRILTGYAMGLYRQAPGKEREFVASITGSGAITNYADSVKGRFTITRDNAKNTVYLQMNSLKPEDTAVYYCARGYGWWLGYSSRYDYWGQGTQVTVSS” stands “high polyreactivity”.
With “QVQLVESGGGLVQAGGSLRLSCAASGRTFGEYTMGWYRQAPGKERELVAAISSAGRTNYADSVKGRFTISRDNAKNTVYLQMNSLKPEDTAVYYCAADWTDDVPGYDYWGQGTQVTVSS” the entry was “low polyreactivity”; with “QVQLQESGGGLVQAGASLRLSCAASSNNSTLDVMGWYRQAPGKEREFVASIGSGGITNYADSVKGRFTISRDNAKNTVYLQMNSLKPEDTAVYYCAVLIQAYTDLIYWGQGTQVTLSS”, “high polyreactivity”.
Consider “QVQLVESGGGLVQAGGSLRLSSAASGSTFSDYAMGWYRQAPGKERELVAAISVSDGSTYYADSVKGRFTISRDNAKNTVYLQMNSLKPEDTAVYYCAAEYPYFVYSYFRFDYWGQGTQVTVSS”, for which the “polyreactivity (PSR sort gate)” value is reported as “low polyreactivity”.
Under “QVQLQESGGGMVQAGGSLLWCAASGTISYNREMGWYRQAPGKERELVAGIGVGTITYYADSVKGRFTIIRDNAKNTVYLQMNSLKPEDTAVYYCAAHIDGIDSHAYCGQGTQVTVSS” stands “low polyreactivity”.
Under “QVQLVESGGGLVQAGGSLRLSCAASGITFYYNVMGWYRQAPGKERELVASITSGGSTYYADSVKGRFTISRDNAKNTVYLQMNSLKPEDTAVSYCNKDHALYVDFSYDYWGQGTQVTVSS” stands “low polyreactivity”; under “QVQLVESGGGLVQAGGSLRLSCAASGSISVRNVMGWYRQAPGKERELVATIRRTGGSTSYADSVKGRFTISRDNAKNTVYLQLNSLKPEDTAVYDCADVRYTTYRRYEYWGQGTQVTVSS”, “low polyreactivity”.
Under “QVQHVESGGGLVQAGGSLRLSCAASGSTFWYYDMGGYRQAPGKERELVAAISTRGDSTYYADSVKGRFTISRDNAKNTVYLQMNSLKPEDTAVYYCAKSRQSSGRVRFDYWGQGTQVTVSS” stands “low polyreactivity”.
Regarding “QVQLVESGGGLVQAGGSLRLSCAASGLTFGYYAMGWYRQAPGKERELVAGISGSGGSTYYADSVKGRFTISRDNAKNTLYLQMNSLKPEDTAVYYCNAEARYTGFAYSYFNSDYWGQGTQVTVSS”, the “polyreactivity (PSR sort gate)” value is listed as “low polyreactivity”.
For “QVQLVESGGGLVQAGGSLRLSCAASGSIFLRYAMGWYRQAPGKERELVATISKSGGSTYYADSVKGRFTISRDNAKNTVYLQMNSLKPEDTAVYYCAAGYVYFQTYYYWGQGTQVTVSS”, the “polyreactivity (PSR sort gate)” value is on record as “high polyreactivity”.
Under “QVQLVESGGGLVQAGGSLRLSCAASGGTCWWYAMGWYRQAPGKEREFVAAISQRGTSTYYADSVKGRFTISRDNAKNTVYLQMNSLKPEDTAVYYCAVRAYRWRSTLGLYYWGQGTQVTVSS” stands “high polyreactivity”; under “QVQLVESGGGLVQAGGSLRLSCAASGRIFHSYTIGWYRPAPGNERELVAAINWSGTRTYYADSVKGRFTISRDNAKNTVYLQMNSLKPEDTAVYYCNRVGVTRSYRYDYWGQGTQVTVSS”, “high polyreactivity”; under “QVQLVESAGGLVQAGGSLRLSFAASGFTFAKYAMGWYRQAPGKERELVAGISRRGGSTYYADSVKGRFTISRDNAKNTVYLQMNSLKPEDTAVYYCNADLVRPGYYRYDYWGQGTQVTVSS”, “high polyreactivity”.
Regarding “QVQLVESRGGLVQAGGSLRLSCAASGSTFYAYAMGWYRQAPGKERDLVAAISSSGGSTYYADSVKGRFTISRDNAKNTVYLQMNSLKTEDTAVYYCAAYDSVQKYWILGFDYWGQGTQVTVSS”, the “polyreactivity (PSR sort gate)” value was “low polyreactivity”.
With “QVQLVESGGGLVQAGGSLRLSCAASGRTFSYYAMGWSRQAPGKERELVATIRFSGGGTYYADSVKGRFTISRDNAKNTVYLLMNSLKPEATAVYYCAALNYHKFAHKYDYWGQGTQVTVSS” the entry was “low polyreactivity”; with “QVQLVESGGGLVQAGGSLRLSCAPSGFTFRGNAMGWYRQAPGKERELVATISRGGNTNYADSVKGRCTISRDNAKNTVYLQMNSLKPEDTAVYYCAAVSFIRSKVAYNYWGQGTQVTVSS”, “low polyreactivity”.
With “QVQLVESGGGLVQAGGSLSLSCAASGSILYINDMGWYRQAPGKERELVAAISWSGDSTIYADSVKGRFTISRDNAKNTVYLQMNSLKPEDTAVYYCNAVWYGGDMDYWGQGTQVTVSS” the entry was “low polyreactivity”.
